Measured values taken from publication PMC7688916 (2020).
Residue numbers refer to the chain shown, from its start. Names and notes keep the numbering of the source. Like-named read-outs stand apart in the source and are kept apart here.

Assays:
Experiment in all cases: split reporter (BiFC, NanoBiT); split-GFP (mGFP2 split between residues 157 and 158) in Hfx. volcanii transformants in vivo; eight combinations of fusions a pair, highest relative fluorescence (rf) given; cells in basal salts (3 M NaCl, 150 mM MgSO4, 50 mM KCl) at OD600 1; rf > 5 clear interaction, rf < 1 no interaction
[1] = target: GvpF fused to NGFP or CGFP (split-GFP) (Halobacterium salinarum PHH1)
Sequence of GvpF fused to NGFP or CGFP (split-GFP) (Halobacterium salinarum PHH1) (P24370 whole entry, the tested form may be a part): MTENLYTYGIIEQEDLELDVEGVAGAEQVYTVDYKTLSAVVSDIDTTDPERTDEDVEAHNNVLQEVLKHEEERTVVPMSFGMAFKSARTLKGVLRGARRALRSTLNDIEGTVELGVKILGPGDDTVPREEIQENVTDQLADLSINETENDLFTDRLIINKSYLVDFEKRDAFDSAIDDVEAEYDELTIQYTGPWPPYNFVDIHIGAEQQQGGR

[2] = target: GvpL fused to NGFP or CGFP (split-GFP) (Halobacterium salinarum PHH1)
Sequence of GvpL fused to NGFP or CGFP (split-GFP) (Halobacterium salinarum PHH1) (Q9HI27 whole entry, the tested form may be a part): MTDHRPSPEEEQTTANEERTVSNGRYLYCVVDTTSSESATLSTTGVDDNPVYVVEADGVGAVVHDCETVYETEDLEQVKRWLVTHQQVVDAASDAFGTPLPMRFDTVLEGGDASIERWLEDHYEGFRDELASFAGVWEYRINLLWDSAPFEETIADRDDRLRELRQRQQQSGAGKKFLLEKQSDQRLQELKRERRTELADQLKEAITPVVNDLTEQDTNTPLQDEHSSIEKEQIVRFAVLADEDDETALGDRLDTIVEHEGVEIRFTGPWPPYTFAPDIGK

[3] = target: GvpG fused to NGFP or CGFP (split-GFP) (Halobacterium salinarum PHH1)
Sequence of GvpG fused to NGFP or CGFP (split-GFP) (Halobacterium salinarum PHH1) (P24371 whole entry, the tested form may be a part): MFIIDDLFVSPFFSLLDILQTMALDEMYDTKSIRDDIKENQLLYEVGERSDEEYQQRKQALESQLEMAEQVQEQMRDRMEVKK

[4] = target: GvpI fused to NGFP or CGFP (split-GFP) (Halobacterium salinarum PHH1)
[5] = target: GvpF fused to NGFP or CGFP (split-GFP) (Halobacterium salinarum PHH1); remark: listed apart in the source
[6] = target: GvpI fused to NGFP or CGFP (split-GFP) (Halobacterium salinarum PHH1); remark: listed apart in the source
[7] = target: GvpK fused to NGFP or CGFP (split-GFP) (Halobacterium salinarum PHH1)
[8] = target: GvpG fused to NGFP or CGFP (split-GFP) (Halobacterium salinarum PHH1); remark: listed apart in the source
[9] = target: GvpJ fused to NGFP or CGFP (split-GFP) (Halobacterium salinarum PHH1)
[10] = target: GvpL fused to NGFP or CGFP (split-GFP) (Halobacterium salinarum PHH1); remark: listed apart in the source
[11] = target: GvpH fused to NGFP or CGFP (split-GFP) (Halobacterium salinarum PHH1)
[12] = target: GvpM fused to NGFP or CGFP (split-GFP) (Halobacterium salinarum PHH1)

Molecule: GvpI fused to NGFP or CGFP (split-GFP) (natural protein)
- highest relative fluorescence (rf) [1]: 6.3 rf
- highest relative fluorescence (rf) [2]: 13.7 rf

Molecule: GvpG fused to NGFP or CGFP (split-GFP) (natural protein)
- highest relative fluorescence (rf) [1]: 5 rf
- relative fluorescence (rf) [3]: 3.5 rf
- highest relative fluorescence (rf) [2]: 77.5 rf

Molecule: GvpK fused to NGFP or CGFP (split-GFP) (natural protein)
- highest relative fluorescence (rf) [2]: 7.4 rf

Molecule: GvpH fused to NGFP or CGFP (split-GFP) (natural protein)
- highest relative fluorescence (rf) [4]: 20 rf
- highest relative fluorescence (rf) [1]: 6.3 rf
- highest relative fluorescence (rf) [2]: 11.4 rf

Molecule: GvpF fused to NGFP or CGFP (split-GFP) (natural protein)
- relative fluorescence (rf) [1]: 1.5 rf
- highest relative fluorescence (rf) [2]: 16.6 rf

Molecule: MAQPDSSGLAEVLDRVLDKGVV (domain or fragment) [GvpA fragment A1-22 fused to NGFP or CGFP (split-GFP)]
- highest relative fluorescence (rf) [5]: 41 rf

Molecule: GVVVDVWARVSLVGIEILTVEARVVAAS (domain or fragment) [GvpA fragment A20-47 fused to NGFP or CGFP (split-GFP)]
- highest relative fluorescence (rf) [5]: < 1 rf

Molecule: VAASVDTFLHYAEEIAKIEQAELTAGAEAAPEA (domain or fragment) [GvpA fragment A44-76 fused to NGFP or CGFP (split-GFP)]
- highest relative fluorescence (rf) [5]: < 1 rf

B1: GvpA fused to NGFP or CGFP (split-GFP) (natural protein)
chain: MAQPDSSGLAEVLDRVLDKGVVVDVWARVSLVGIEILTVEARVVAASVDTFLHYAEEIAKIEQAELTAGAEAAPEA
- highest relative fluorescence (rf) [6]: < 1 rf
- highest relative fluorescence (rf) [7]: < 1 rf
- highest relative fluorescence (rf) [5]: 20 rf
- relative fluorescence (rf) [5]: 15 to 18 rf
- highest relative fluorescence (rf) [8]: < 1 rf
- highest relative fluorescence (rf) [9]: < 1 rf
- highest relative fluorescence (rf) [10]: < 1 rf
- highest relative fluorescence (rf) [11]: < 1 rf
- highest relative fluorescence (rf) [12]: < 1 rf

B2: GvpA D24A (split-GFP fusion) (natural protein)
chain: B1 chain with D24A
- relative fluorescence (rf) [5]: < 6 rf

B3: GvpA E40A (split-GFP fusion) (natural protein)
chain: B1 chain with E40A
- relative fluorescence (rf) [5]: < 6 rf

B4: GvpA R28D (split-GFP fusion) (natural protein)
chain: B1 chain with R28D
- relative fluorescence (rf) [5]: < 6 rf

B5: GvpA R28A (split-GFP fusion) (natural protein)
chain: B1 chain with R28A
- relative fluorescence (rf) [5]: < 6 rf

B6: GvpA G20D (split-GFP fusion) (natural protein)
chain: B1 chain with G20D
- relative fluorescence (rf) [5]: < 6 rf

B7: GvpA G20A (split-GFP fusion) (natural protein)
chain: B1 chain with G20A
- relative fluorescence (rf) [5]: < 6 rf

B8: GvpA D24Y (split-GFP fusion) (natural protein)
chain: B1 chain with D24Y
- relative fluorescence (rf) [5]: < 6 rf
